Sequences and labels used below:
T1: W59F and W228F double mutation of 14-3-3ζ (human, UniProt P63104 1-245, W59F | W228F)
T1 sequence (looked up): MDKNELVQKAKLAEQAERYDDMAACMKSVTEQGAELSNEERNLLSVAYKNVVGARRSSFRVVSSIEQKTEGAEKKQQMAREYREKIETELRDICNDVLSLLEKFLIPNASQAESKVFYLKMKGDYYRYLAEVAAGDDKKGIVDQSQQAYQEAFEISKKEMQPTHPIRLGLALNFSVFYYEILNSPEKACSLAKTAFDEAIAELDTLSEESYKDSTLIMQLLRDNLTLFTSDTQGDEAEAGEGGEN

B1: 14-3-3σ with truncated C-terminus ΔC232-248 (domain or fragment, human, UniProt P31947 1-231, looked up)
chain: MERASLIQKAKLAEQAERYEDMAAFMKGAVEKGEELSCEERNLLSVAYKNVVGGQRAAWRVLSSIEQKSNEEGSEEKGPEVREYREKVETELQGVCDTVLGLLDSHLIKEAGDAESRVFYLKMKGDYYRYLAEVATGDDKKRIIDSARSAYQEAMDISKKEMPPTNPIRLGLALNFSVFHYEIANSPEEAISLAKTTFDEAMADLHTLSEDSYKDSTLIMQLLRDNLTLWT

Square brackets hold non-standard residues; d marks the D form. Primed or numbered codes have the meaning given here. FITC′ = fluorescein isothiocyanate; pS = N[C@@H](COP(=O)(O)O)C(=O)O; βAla = NCCC(=O)O

The target of data set [1] is FITC-labeled IκBαpS63 peptide (phosphorylated 14-3-3 binding motif of IκBα) (human) (UniProt P25963). Briefly: fluorescence polarisation. (In fluorescence polarisation assays a small probe gives low polarisation when free and higher when bound to something large.)
The data set “crystal structure” deals with the molecule itself. The experiment in a line: crystal structure.
Data set [2] has as its target T1, W59F and W228F double mutation of …. The experiment in a line: fluorescence polarisation.
Data set [3] addresses B1. The experiment in a line: crystal structure.

For orientation: Kd means the concentration at which binding is half-saturated. Read a low Kd as higher affinity. “14-3-3ζ (from UniProt P63104 1-245) (natural protein)” showed a dissociation constant (Kd) in data set [1] of 380 µM.
Turning to B1, in “crystal structure”, the binding result is listed as “binds”.
On to {FITC′-βAla}-QEVPRG[pS]EPWKQQ-NH2 (peptide, UniProt P25963 57-69, looked up) [FITC-labeled IκBαpS63 peptide (phosphorylated 14-3-3 binding motif of IκBα)], for which the Kd in data set [2] is approximately 415 µM.
In the case of Ac-QEVPRG[pS]EPWKQQ-NH2 (peptide, UniProt P25963 57-69, looked up) [unlabeled (N-terminally acetylated) IκBαpS63 peptide], in data set [3], the binding result is “binds”.

The values are drawn from paper PMC7081424 (ACS Omega, 2020).
